# B1: HDV Ribozyme (parent)
# chain: GGCCGGCAUGGUCCCAGCCUCCUCGCUGGCGCCGGCUGGGCAACAUUCCGAGGGGACCGUCCCCUCGGUAAUGGCGAAUGGGACCCA
# Variants of: B1
# Test: self-cleavage, relative activity (ratio to wild type); higher = more cleavage; co-transcriptional
row,Variant,self-cleavage
1,C19U A43G,0.0545
2,C19U U23C,0
3,C19A C85A,0.0963
4,C19A C85G,0.149
5,C21A G54C,0.0804
6,C19A G76C,0.102
7,C19A G76U,0.262
8,C19G A71C,0.0665
9,U20A G82A,0.0739
10,C21A G53A,0.0791
11,C19U G35U,0.0519
12,U20A C66U,0.0773
13,U20G G35U,0
14,U20G G35A,0.107
15,C19G U27G,0
16,C19G U27A,0.0615
17,U20A U72C,0.0723
18,U20G G80U,0.053
19,U20G G80A,0.0831
20,U20G U47A,0.0831
21,U20A C49G,0.128
22,U20A C49A,0
23,U20G U37C,0.237
24,U20G U60G,0.0831

row,Variant,self-cleavage
1,C19U G53U,0.215
2,U20C A70G,0.107
3,U20C A70U,0.0594
4,U20A C62A,0.119
5,C19G G38A,0.0511
6,U20A U60A,0.142
7,C19A U47G,0.0361
8,C19A U47C,0.148
9,C19A U47A,0.0554
10,C19A C57U,0.155
11,U20A G35C,0.122
12,U20A G35U,0.0437
13,U20A G35A,0.158
14,U20C C86A,0.158
15,C19U G34A,0.0468
16,C19U C57G,0.089
17,C19U C57U,0.165
18,U20C A51G,0
19,U20A C21G,0.256
20,U20A C21A,0.0536
21,C19G C49U,0.0326
22,C19A G28U,0.79
23,C19U A51U,0.0923
24,U20A G80A,0.0712

row,Variant,self-cleavage
1,U20C G28U,0.119
2,U20C G28A,0.147
3,C21A G55C,0.13
4,U20A G81C,0.0449
5,C21A G25C,0
6,C21A G25A,0.116
7,U20G G68A,0.0378
8,C19U A77G,0.253
9,U20G A87U,0.158
10,C21A C36U,0.0339
11,C21A C36G,0.0627
12,U20C G29U,0.0519
13,U20G G81C,0.095
14,C21A G52A,0.132
15,U20C C66U,0.0831
16,U20C C66A,0.135
17,C19U G52A,0.137
18,C19U G52U,0.265
19,C19G G52U,0.145
20,U20A U27C,0
21,U20G A51U,0.332
22,U20A C33A,0
23,U20G C62U,0.19
24,U20G C62A,0.312

row,Variant,self-cleavage
1,C19U C61A,0.243
2,U20G U72C,0
3,U20A G29C,0.128
4,C19G U46C,0.13
5,U20A U46A,0.0594
6,U20G U23C,0
7,U20G U23A,0
8,C19U G82C,0.0817
9,C19U G82A,0.0511
10,C21A C58G,0.128
11,C19G A83G,0.0678
12,C19U G29A,0.102
13,U20C C21G,0
14,C21A U23A,0.0369
15,U20C G67U,0.175
16,U20G G52U,0.332
17,C19U C33A,0.0665
18,C19G G82C,0.0594
19,C19A G81A,0.0449
20,C19G U37A,0.0627
21,C19A U23C,0.0519
22,C19A U23G,0.0923
23,U20G C49G,0.361
24,U20G C49A,0.308

row,Variant,self-cleavage
1,U20G C49U,0.185
2,U20C U69G,0.0639
3,U20A C48U,0
4,C19U G67C,0.0715
5,C19G G74A,0.161
6,C21A A43U,0.0944
7,U20C C24G,0.115
8,U20C C84G,0.0978
9,U20C C84A,0.166
10,U20C C64U,0.244
11,C19A G38A,0.125
12,U20G C63G,0.104
13,C19G C85A,0.148
14,C19G C33A,0.111
15,C19G C33G,0
16,C21A G67A,0.0712
17,U20C G54C,0.0475
18,C21A A45C,0.0652
19,C21A A45G,0.0615
20,C19U A83C,0.217
21,C21A C33U,0.0723
22,C21A C33A,0.026
23,C19U G76A,0.197
24,U20G U65G,0.437

row,Variant,self-cleavage
1,U20C C22A,0.119
2,U20C C22G,0.0554
3,C19A G74A,0.0755
4,U20G C33U,0.0852
5,C19A U37C,0.0845
6,U20C C62G,0.0665
7,C19G G28C,0.912
8,C19G G35A,0.0297
9,U20A C61A,0.111
10,U20A G55A,0.0959
11,U20C A45U,0.166
12,U20C A42C,0.158
13,C21A A87G,0.0496
14,C21A A87U,0.0915
15,C21A G28U,0.196
16,C19G C63U,0.0978
17,U20A G38C,0.119
18,U20G G74C,0.0489
19,C19A G80U,0.0513
20,C19U G31A,0.102
21,C21A C85U,0.157
22,C21A C85G,0
23,C21A C85A,0
24,U20C C44A,0

row,Variant,self-cleavage
1,U20C C57G,0.0723
2,C19U U79A,0.0396
3,C19U U79G,0.0997
4,C19A U20G,0.217
5,U20A C58U,0.158
6,U20A U37C,0
7,C19A G73U,0.0631
8,C19A G73A,0.0519
9,U20G U46C,0.185
10,C19A G39A,0.114
11,C19A G39C,0
12,U20C C63A,0.0898
13,C19G C21U,0.122
14,C19A C62G,0.104
15,C19A C62U,0.111
16,U20C G39A,0
17,U20A C24U,0.162
18,U20A C24A,0.0415
19,U20A U47A,0.104
20,U20A U47C,0.0594
21,C19G C26G,0
22,C19G C26A,0.104
23,U20G C86U,0.214
24,C19G G68A,0.021

row,Variant,self-cleavage
1,C19U C63A,0.199
2,U20A A43C,0.0978
3,C19U G39C,0.133
4,U20A G39A,0.133
5,U20C U60G,0.199
6,U20A C63G,0
7,C19A C75U,0.058
8,C19A C75G,0.0528
9,C21A C26U,0
10,C19A G68A,0.0631
11,C21A U27C,0.0519
12,C21A U27A,0.0504
13,U20G A78G,0
14,U20A A45U,0
15,U20G C61U,0.131
16,U20G A56U,0.178
17,U20G C66A,0.249
18,U20C U79C,0.0845
19,C19A G31U,0.192
20,C19A G31C,0.141
21,C21A A77U,0
22,C21A A77C,0
23,C19G C48G,0.148
24,C21A C75G,0.0346

row,Variant,self-cleavage
1,C21A C84G,0.0314
2,U20G C36A,0
3,C19U U72G,0.0396
4,U20A C85G,0.107
5,U20G C26U,0.256
6,C19U A45C,0.0767
7,C21A A70C,0.0426
8,C19U C22A,0.0886
9,C19U C22U,0.058
10,C19U G25C,0.0489
11,C19U G25U,0.188
12,C19U G74U,0.0762
13,U20G C84G,0.119
14,C19A G52C,0.125
15,U20G G29C,0
16,U20G G29U,0
17,U20A G52C,0.0449
18,C19G C57G,0.0739
19,C19G G54C,0.0489
20,U20A G73U,0.0354
21,U20A G73C,0.0615
22,U20A A71G,0.0665
23,C19U U20C,0.145
24,C19A C36U,0.0468

row,Variant,self-cleavage
1,C19A C84A,0.0519
2,C19A C84G,0.196
3,C19A G59A,0.125
4,U20C G80U,0.0625
5,C19U C36U,0.0314
6,C19G G67C,0.0287
7,C19U A42C,0.104
8,C19U A42G,0
9,U20C G34U,0.086
10,C19U G40U,0.0839
11,C21A C41G,0
12,C21A C41U,0.181
13,C19G A51U,0.0678
14,U20C G25A,0.458
15,C21A C48A,0.157
16,C21A G39U,0.945
17,C21A G34C,0
18,U20G A43G,0.104
19,C21A G35U,0.0744
20,C21A C57A,0.102
21,U20C G55C,0.0791
22,U20C C30G,0.447
23,C19A U79A,0.0773
24,C19U G55U,0.0573

row,Variant,self-cleavage
1,C19U A87U,0.149
2,U20A G40U,0.0627
3,C21A G38C,0.185
4,U20A A56U,0.0519
5,U20A C22A,0.0898
6,C19A G82A,0.113
7,C19G U69G,0.102
8,U20G G50A,0.151
9,C19U C21A,0.0573
10,U20C C58A,0.0875
11,C19U G59A,0.145
12,C21A C44U,0.0346
13,C19A G25U,0.0791
14,U20C C36G,0.111
15,U20A C75A,0.0923
16,C21A C61G,0.0997
17,U20C U72C,0.0755
18,U20C U72A,0.123
19,C19G U23C,0
20,C19U C30U,0.0608
21,U20C G31U,0.141
22,C21A A78C,0
23,C21A A78U,0.0573
24,C21A A78G,0.189

row,Variant,self-cleavage
1,U20C G35U,0.0978
2,C19U C32G,0.0482
3,C19U C49G,0.154
4,U20C U37C,0.252
5,C21A G50U,0.0332
6,C21A G50C,0.0639
7,U20G A71C,0
8,U20G A71G,0.196
9,C19U G73U,0.12
10,C19U G73A,0.122
11,C19U G73C,0.0479
12,U20A A42G,0
13,U20A G31A,0.155
14,C19G G31U,0.0723
15,U20G A45C,0.158
16,C19G C66U,0.0639
17,U20G C58G,0.266
18,U20G C58U,0.237
19,C21A A83U,0.0739
20,C21A G81U,0.0665
21,U20C U23A,0.115
22,C21A A71C,0.0692
23,U20C C26G,0.0923
24,C19U A70C,0.0906

row,Variant,self-cleavage
1,C19U A70G,0.141
2,C19A U46G,0.0386
3,U20G C30A,0.0378
4,C19G C32A,0.0462
5,C19G G73A,0.021
6,U20A U23C,0
7,C19G A78U,0.0773
8,U20C U47G,0
9,C19G C84A,0.0898
10,C21A G74C,0.126
11,C21A G74U,0.0712
12,C21A G40C,0.111
13,C19U G38A,0.0875
14,C19U G50U,0.159
15,U20G G40U,0.131
16,U20G G40C,0.0462
17,U20G G53A,0.148
18,C21A G80C,0.0496
19,U20C G59A,0.208
20,C19G G80U,0.0902
21,C19G C36A,0.0277
22,C21A G59U,0.0545
23,C21A G59A,0.0936
24,C21A C22U,0.138

row,Variant,self-cleavage
1,C19A G34U,0
2,C19G G76A,0.0545
3,C19U C86A,0.194
4,C19U C86U,0.122
5,C19U C86G,0.116
6,U20C G74C,0.107
7,C19A U27A,0.312
8,C19A U27C,0.0536
9,C19U C24A,0.0791
10,U20G G82C,0.246
11,U20C G52U,0.145
12,U20G G25A,0
13,U20G A42C,0.0875
14,U20G A70G,0.312
15,U20G A70U,0.196
16,C19G A43G,0.155
17,U20C A87G,0.282
18,U20A C32G,0.111
19,C21A A42U,0.208
20,C19U C85A,0.0378
21,C19G C75U,0.161
22,C19G G39C,0.0978

# — the RNAGym collection of RNA variant scans (doi:10.7554/elife.80360)
